According to PMC3951439:

Molecular target: EZH2 subunit of purified human PRC2 (human) (UniProt Q15910)
Sequence (Q15910 whole entry): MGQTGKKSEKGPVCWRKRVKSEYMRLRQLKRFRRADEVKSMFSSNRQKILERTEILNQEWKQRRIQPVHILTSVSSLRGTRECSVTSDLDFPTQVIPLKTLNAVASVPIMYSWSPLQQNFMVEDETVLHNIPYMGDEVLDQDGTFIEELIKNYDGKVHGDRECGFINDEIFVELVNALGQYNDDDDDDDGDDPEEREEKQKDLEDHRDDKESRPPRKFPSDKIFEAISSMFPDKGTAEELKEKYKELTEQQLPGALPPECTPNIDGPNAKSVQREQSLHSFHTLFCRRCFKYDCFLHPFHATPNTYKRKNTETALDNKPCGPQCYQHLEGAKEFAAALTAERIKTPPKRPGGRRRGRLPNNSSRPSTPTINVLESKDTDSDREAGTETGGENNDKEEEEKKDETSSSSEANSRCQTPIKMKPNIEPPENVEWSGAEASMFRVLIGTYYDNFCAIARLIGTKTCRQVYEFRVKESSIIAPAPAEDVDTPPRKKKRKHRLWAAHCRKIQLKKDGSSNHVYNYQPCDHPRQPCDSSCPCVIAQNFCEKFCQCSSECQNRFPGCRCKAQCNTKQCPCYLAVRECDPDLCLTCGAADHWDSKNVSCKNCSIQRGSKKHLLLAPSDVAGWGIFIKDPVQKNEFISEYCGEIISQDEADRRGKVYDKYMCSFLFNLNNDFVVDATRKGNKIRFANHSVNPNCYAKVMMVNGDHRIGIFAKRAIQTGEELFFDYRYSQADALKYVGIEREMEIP

IC50 of inhibition of PRC2 methyltransferase activity in vitro, peptide titrated: 8.9 µM
Substance: H3 peptide (18 to 37) containing K27Ile (from UniProt P84243 19-38)
